Data on one substance can be found in patent publication US20250388664A1.

In assay [1] the target is Aβ1-40 monomer (UniProt P05067). Briefly: inhibition ELISA: antibody at a fixed concentration pre-incubated with titrated Aβ1-40 monomer in solution, then on an AβpE3-40 coat; the x axis is the Aβ1-40 concentration. In general terms: An ELISA detects its analyte on a solid surface through an enzyme-linked reagent.
For assay [2], the target named is AβpE11-40 monomer (UniProt P05067). Briefly: inhibition ELISA: antibody at a fixed concentration pre-incubated with titrated AβpE11-40 monomer in solution, then on an AβpE3-40 coat; the x axis is the AβpE11-40 concentration.
AβpE11-40 monomer, sequence (P05067 682-711): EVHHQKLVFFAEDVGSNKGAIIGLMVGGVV

Aβ1-40 monomer, sequence (P05067 672-711): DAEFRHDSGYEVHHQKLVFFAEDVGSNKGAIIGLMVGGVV

With 4G8 (antibody), the IC50 (read off the curve) in assay [1] and in assay [2] was 20 nM in each case.
